From article PMC8141644
Like-named read-outs stand apart in the source and are kept apart here. Each block holds one substance with its values, some of them ahead of it.

How the values were obtained:
PD-L1-ECD = PD-L1-ECD (UniProt Q9NZQ7); test: BLI
CD16a-ECD (human) [1] = target: CD16a-ECD (human) (UniProt P08637); test: BLI
CD16a-ECD (human) [2] = target: CD16a-ECD (human) (UniProt P08637)

Sequence of CD16a-ECD (human) (P08637 17-208): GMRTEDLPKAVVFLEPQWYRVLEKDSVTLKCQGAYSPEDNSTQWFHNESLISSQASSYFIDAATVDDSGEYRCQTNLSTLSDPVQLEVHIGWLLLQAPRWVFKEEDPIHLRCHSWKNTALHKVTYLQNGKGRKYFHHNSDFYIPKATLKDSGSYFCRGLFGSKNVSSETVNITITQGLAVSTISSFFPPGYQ
Sequence of PD-L1-ECD (Q9NZQ7 19-238): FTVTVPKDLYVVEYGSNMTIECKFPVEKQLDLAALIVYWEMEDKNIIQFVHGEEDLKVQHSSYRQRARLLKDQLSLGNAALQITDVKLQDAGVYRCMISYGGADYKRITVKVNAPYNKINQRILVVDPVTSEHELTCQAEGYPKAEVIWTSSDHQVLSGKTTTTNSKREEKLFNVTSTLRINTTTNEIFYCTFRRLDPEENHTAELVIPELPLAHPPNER

Substance: hNKE14-8 (from UniProt P01857)
Kd (CD16a-ECD (human) [1]): 15.5 nM

Substance: bispecific hdFEB4-1-4×hNKE14-8 (from UniProt P01857)
Kd (CD16a-ECD (human) [1]; bispecific antibody): 16.5 nM

Second part, the substance after the results:

Kd (PD-L1-ECD): 3.2 nM
Substance: ICI13 (from UniProt P01857)

Kd (PD-L1-ECD): 5.8 nM
Substance: ICI12 (from UniProt P01857)

EC50 of the ADCC reporter bioassay (Promega G7010, luciferase; A431 target cells; 0.2 nM – 13.3 nM antibody) (CD16a-ECD (human) [2]): 0.362 nM
Substance: bispecific hdFEB4-1-4×hNKE14-8 (bispecific antibody)
